# B1: GST-EZH2 (465–545) (domain or fragment)
# chain: not shown
# notes: Vector pGEX-4T-1; source: E. coli; held on Glutathione-Sepharose beads from bacterial lysate (pull-down); purified (SPR)
# B2: GST-EZH2 (465–519) (domain or fragment)
# chain: not shown
# notes: Vector pGEX-4T-1; source: E. coli; held on Glutathione-Sepharose beads from bacterial lysate
# B3: GST-EZH2 (385–618) (domain or fragment)
# chain: not shown
# notes: as for B1
# Target: T1, His×6-YY1 (UniProt P25490 1-414)
# T1 construct: Yin Yang 1 (YY1); The construct and its host are not described in the methods; also called purified His×6-YY1
# T1 sequence (P25490 whole entry): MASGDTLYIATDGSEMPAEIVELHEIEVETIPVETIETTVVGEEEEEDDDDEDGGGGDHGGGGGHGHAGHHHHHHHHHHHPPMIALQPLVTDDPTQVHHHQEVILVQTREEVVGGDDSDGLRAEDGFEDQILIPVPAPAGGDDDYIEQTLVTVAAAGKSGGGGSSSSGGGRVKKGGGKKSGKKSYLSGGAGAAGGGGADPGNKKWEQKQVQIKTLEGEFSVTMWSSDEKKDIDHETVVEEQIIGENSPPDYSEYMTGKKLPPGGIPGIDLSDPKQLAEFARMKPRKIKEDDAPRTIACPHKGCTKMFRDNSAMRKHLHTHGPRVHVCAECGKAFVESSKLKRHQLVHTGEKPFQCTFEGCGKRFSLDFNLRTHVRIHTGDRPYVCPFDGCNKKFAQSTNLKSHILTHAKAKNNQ
# Assay: pull-down; GST-EZH2 fragments from E. coli lysates held on Glutathione-Sepharose beads, washed, 1.0 µg of purified His×6-YY1 added for 4 h at 4 °C; 20 mM Tris-HCl pH 7.5, 150 mM NaCl, 0.1% NP-40
# Conditions: both partners purified
row,binding result,Binder
1,binds,B1
2,binds,B2
3,binds,B3
